Source: patent US20050069542A1 (Human Genome Sciences, published 2005)

T1: flag-tagged soluble TL3 (amino acids 105-251 of SEQ ID NO:234) (Homo sapiens (Human), UniProt O75888 105-250)
T1 construct: Heterologous flag-tagged control protein, immobilized in the ELISA; also called flagged tagged TL-3; not shown: Flag tag
T1 sequence: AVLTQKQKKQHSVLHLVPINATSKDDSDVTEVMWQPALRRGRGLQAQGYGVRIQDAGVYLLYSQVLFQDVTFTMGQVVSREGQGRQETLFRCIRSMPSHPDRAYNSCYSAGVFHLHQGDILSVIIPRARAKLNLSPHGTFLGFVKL


Target: T1, flag-tagged soluble TL3 (amino acids …)
Experiment: phage ELISA on immobilized flag-tagged soluble TL3
Procedure: The individual phage isolates in the panel of phage, each phage expressing a unique scFv that bound to flag-tagged GMAD, were tested to ensure specificity for GMAD using an ELISA assay. The scFvs were tested in an ELISA for their ability to bind a heterologous flag-tagged protein, in this case—immobilized soluble TL3 (amino acids 105-251 of SEQ ID NO:234, GenBank Accesion Number NP_{—}003799, also described in International Patent Application Publication Number WO97/33902 and WO2001/96528 which are herein incorporated by reference in their entireties).

Binder	binding result
GMBC638 (scFv) scFv: QVQLVQSGGGLVKPGESLRLSCEASGFEFNYAWMSWVRQAPGKGLEWVGRSRSVASGGTTDYAAPLQDRFTISRDDSKNTLYLQVNSLKIEDTGVYFCKWEKSEYYGMDVWGRGTMVTVSSGGGGSGGGGSGGGGSQSVLTQPASVSGSPGQSITISCTGTSSDVGGYNYVSWYQQHPGKAPKLMIYEGSKRPSGVSNRFSGSKSGNTASLTISGLQAEDEADYYCSSYTTRSTRVFGGGTKLTVLG	no binding
GMBC659 (scFv) scFv: QVQLVESGGGLVKPGESLRLSCEASGFEFNYAWMSWVRQAPGKGLEWVGRSRSEASGGTTDYAAPLQDRFTISRDDSKNTLYLQVNSLKIEDTGVYFCKWEKSEYYGMDVWGRGTLVTVSSGGGGSGGGGSGGGGSQSVLTQPASVSGSPGQSITISCTGTSSDVGGYNYVSWYQQHPGKAPKLMIYEGSKRPSGVSNRFSGSKSGNTASLTISGLQAEDEADYYCSSYTTRSTRVFGGGTKLTVLG	no binding
GMBC626 (scFv) scFv: EVQLVQSGGGLVKPGESLRLSCEASGFEFNYAWMSWVRQAPGKGLEWVGRSRSEASGGTTDYAAPLQDRFTISRDDSKNTLYLQVNSLKIEDTGVYFCKWEKSEYYGMDVWGRGTPVTVSSGGGGSGGGGSGGGGSQSVLTQPASVSGSPGQSITISCTGTSSDVGGYNYVSWYQQHPGKAPKLMIYEGSKRPSGVSNRFSGSKSGNTASLTISGLRAEDEADYYCSSYTTKSTQVFGGGTKLTVLG	no binding
GMBC665 (scFv) scFv: EVQLVETGGGLVKPGGSLRLSCAASGFTFSDAWMNWVRQAPGKGLEWVGRIKSKGSGGTIDYAAPVKDRFTISRDDSKNTLYLQMNSLKTEDTALYYCTWDWDFYYGMNVWGQGTMVTVSSGGGGSGGGGSGGGGSSELTQDPAVSVALGQTVRITCQGDSLRSYYASWYQQKPGQAPVLVIYGKNNRPSGIPDRFSGSSSGNTASLTITGAQAEDEADYYCNSRDSSGNHVVFGGGTKLTVLG	no binding
GMBC635 (scFv) scFv: EVQLVESGGGLVKPGGSLRLSCAASGFTFSDAWMNWVRQAPGKGLEWVGRIKSKGSGGTIDYAAPVKDRYTISRDDSKNTLYLQMNSLKTEDTALYYCTWDWDFYYGMNVWGKGTMVTVSSGGGGSGGGGSGGGGSSELTQDPAVSVALGQTVRITCQGDSLRSYYASWYQQKPGQAPVLVIYGKNNRPSGIPDRFSGSSSGNTASLTITGAQAEDEADYYCNSRDSSGNHVVFGGGTKLTVLG	no binding
GMBC632 (scFv) scFv: QVQLVQSGGGLVKPGGSLRLSCAGSGFKFSDAWMNWVRQAPGKGLEWVGRIKSKGSGGTIEYAAPVKDRFIISRDDSKDTLYLQMNSLKTEDTALYYCTWDWDFYYDMNVWGQGTMVTVSSGGGGSGGGGSGGGGSSELTQDPAVSVALGQTVRITCQGDSLRSYYASWYQQKPGQAPVLVIYGKNNRPSGIPDRFFGSSSGNTASLTITGAQAEDEADYYCNSRDSSGNHVVFGGGTKLTVLG	no binding
GMBC629 (scFv) scFv: QVQLVESGGGLVKPGGSLRLSCAGSGFKFSDAWMNWVRQAPGKGLEWVGRIKSKGSGGTIEYAVPVKDRFIISRDDSKDTLYLQMNSLKTEDTALYYCTWDWDFYYGMNVWGQGTLVTVSSGGGGSGGGGSGGGGSSELTQDPAVSVALGQTVRITCQGDSLRSYYTNWFQQKPGQAPLLVVYAKNKRPSGIPDRFSGSSSGNTASLTITGAQAEDEADYYCHSRDSSGNHVLFGGGTKLTVLG	no binding

Other lines, results leading:

binding result	Binder
no binding	GMBC628 (scFv) scFv: QVQLQQSGAEVKKPGASVRVSCKASGYTFTSYGFSWVRQAPGQRLEWMGWISAYKGNANYAEKFQGRVTMTTDTSTNTAYMELRSLRSDDTAVYYCARTRISVAGLDYYYYGLDVWGRGTLVTVSSGGGGSGGGGSGGGGSSELTQDPAVSVALGQTVRITCQGDSLRSYYTNWFQQKPGQAPLLVVYAKNNRPSGIPDRFSGSSSGNTASLTITGAQAEDEADYYCNSRDSSGNHVVFGGGTKLTVLG
no binding	GMBC604 (scFv) scFv: EVQLVQSGAEVKKPGESLRISCKGSGYTFTNYWINWVRQVPGKGLEWMGMIDPTDSYAKYSPSFQGHVTISTDKSVSTAYLQWRSLQASDSAIYYCVRGYSYDLDYWGKGTLVTVSSGGGGSGGGGSGGGGSQSVLTQPASVSGSPGQSITISCTGTSSDVGGYNYVSWYQQHPGKAPKLMIYEGSKRPSGVSNRFSGSKSGNTASLTISGLQAEDEADYYCSSYTTRSTRVFGGGTKLTVLG
no binding	GMBC619 (scFv) scFv: EVQLVESGGGVVQPGRSLRLSCAASGFTFRSYGMHWVRQAPGKGLEWVAVITYDGSNKYYADSVKGRFTISRDNSKNTLYLQMNSLRADDTAVYYCARDGGGWYHPRLDYWGQGTMVTVSSGGGGSGGGGSGGGGSSELTQDPAVSVALGQTVRITCQGDSLRSYYASWYQQKPGQAPVLVIYGKNNRPSGIPDRFSGSSSGNTASLTITGAQAEDEADYYCNSRDSSGNHVVFGGGTKLTVLG
no binding	GMBC685 (scFv) scFv: QVQLVESGGVVVQPGGSLRLSCAASGFTFSDAWMNWVRQAPGKGLEWVGRIKSKGSGGTIDYAAPVKDRFTISRDDSKNTLYLQMNSLKTEDTALYYCTWDWDFYYGMNVWGKGTMVTVSSGGGGSGGGGSGGGGSSELTQDPAVSVALGQTVRITCQGDSLRSYYTNWFQQKPGQAPLLVVYAKNKRPSGIPDRFSGSSSGNTASLTITGAQAEDEADYYCHSRDSSGNHVLFGGGTKLTVLG
no binding	GMBC729 (scFv) scFv: QVQLQESGGGLVKPGGSLRLSCAGSGFKFSDAWMNWVRQAPGKGLEWVGRIKSKGSGGTIEYAAPVKDRFIISRDDSKDTLYLQMDSLKTEDTALYYCTWDWDFYYGMNVWGQGTLVTVSSGGGGSGGGGSGGGGSSELTQDPAVSVALGQTVRITCQGDSLRNYYTNWFQQKPGQAPLLVVYAKNKRPSGIPDRFSGSSSGNTASLTITGAQAEDEADYYCHSRDSSGNHVLFGGGTKLTVLG
no binding	GMBC630 (scFv) scFv: QVQLVESGGGLVQPGRSLRLPCAASGFTFSSYGMHWVRQAPGKGLEWVAVISYDGSNKYYADSVKGRFTISRDNSKNTLYLQMNSLRAEDTAVYYCAKATSLLNAFDIWGRGTMVTVSSGGGGSGGGGSGGGGSSELTQDPAVSVALGQTVRITCQGDSLRSYYASWYQQKPGQAPVLVIYGKNNRPSGIPDRFSGSSSGNTASLTITGAQAEDEADYYCNSRDSSGNHVVFGGGTKLTVLG
no binding	GMBC621 (scFv) scFv: EVQLVQSGGGVVQPGRSLRLSCAASGFTFSSYGMHWVRQAPGKGLEWVAVISYDGSNKYYADSVKGRFTISRDNSKNTLYLQMDSLRAEDTAVYFCAKRGLWTPIDYWGKGTLVTVSSGGGGSGGGGSGGGGSSELTQDPAVSVALGQTVRITCQGDSLRSYYASWYQQKPGQAPVLVIYGKNNRPSGIPDRFSGSNSGNTASLTITGAQAEDEADYYCNSRDSSGNHVVFGGGTKLTVLG
no binding	GMBC627 (scFv) scFv: GVQLVQSGGEVKKPGASVRVSCKASRYIFSNYGFSWVRQAPGQGLEWMGSIRNDKGSTNYAQGFQDRLTMTTDTSTNTVFMELRSLSSDDTAVYYCASAPYYYGMGIWGKGTLVTVSSGGGGSGGGGSGGGGSQSVLTQPASVSGSSGQSITISCTGTSSDVGGYNYVSWYQQHPGKAPKLMIYEVGNRPSGVSNRFSGSKSGNTASLTISGLQAEDEADYYCSSYTTRSTRVFGGGTKLTVLG
